Source: US10071358B2, “Antibiotic preparation method and platform system based on same” (priority 2011, dated 2018)

Key:
Assay type in all cases: cell-based
[1] = test system: vancomycin-resistant enterococci (ATCC 700802); assay: inhibition / killing of vancomycin-resistant enterococci; settings: FIG. 7 A
[2] = test system: methicillin-resistant Staphylococcus aureus (ATCC BAA-42)
[3] = test system: multi-drug resistant Pseudomonas aeruginosa (clinical isolated strain 13578 in West China Hospital); assay: inhibition / killing of multi-drug resistant Pseudomonas aeruginosa; settings: FIG. 7 C

B1: wild-type colicin Ia: wild-type colicin Ia, bacteriocin secreted by Escherichia coli that forms ion channels (protein, UniProt P06716 1-626, looked up)
Colicin-Ia: MSDPVRITNPGAESLGYDSDGHEIMAVDIYVNPPRVDVFHGTPPAWSSFGNKTIWGGNEWVDDSPTRSDIEKRDKEITAYKNTLSAQQKENENKRTEAGKRLSAAIAAREKDENTLKTLRAGNADAADITRQEFRLLQAELREYGFRTEIAGYDALRLHTESRMLFADADSLRISPREARSLIEQAEKRQKDAQNADKKAADMLAEYERRKGILDTRLSELEKNGGAALAVLDAQQARLLGQQTRNDRAISEARNKLSSVTESLNTARNALTRAEQQLTQQKNTPDGKTIVSPEKFPGRSSTNHSIVVSGDPRFAGTIKITTSAVIDNRANLNYLLSHSGLDYKRNILNDRNPVVTEDVEGDKKIYNAEVAEWDKLRQRLLDARNKITSAESAVNSARNNLSARTNEQKHANDALNALLKEKENIRNQLSGINQKIAEEKRKQDELKATKDAINFTTEFLKSVSEKYGAKAEQLAREMAGQAKGKKIRNVEEALKTYEKYRADINKKINAKDRAAIAAALESVKLSDISSNLNRFSRGLGYAGKFTSLADWITEFGKAVRTENWRPLFVKTETIIAGNAATALVALVFSILTGSALGIIGYGLLMAVTGALIDESLVEKANKFWGI
B1 was tested, and the “minimum inhibitory concentration (MIC)” value [1] was 0.91 nmol, the “minimum inhibitory concentration (MIC)” value [2] was 0.23 nmol and the “minimum inhibitory concentration (MIC)” value [3] was 0.91 nmol.
